Results: patent publication US20140335016A1 (PROCLARA BIOSCIENCES, published 2014)

Experiments:
[1] = target: T1, amyloid-β 1-42 fibers (fAβ42) (human, UniProt P05067 672-713); test: cell-based or functional assay
[2] = target: T1, amyloid-β 1-42 fibers (fAβ42); test: SPR, fAβ immobilized on the chip, 10^14 phage/mL

T1 sequence (P05067 672-713 limits assumed): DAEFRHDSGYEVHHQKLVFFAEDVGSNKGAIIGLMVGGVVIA

Binder | ThT fluorescence assay, IC50 [1] | Kd [2]
recombinant soluble g3p fragment comprising the N1 and N2 domains, rs-g3p(N1N2), Construct 3 (other) MAETVESCLAKSHTENSFTNVWKDDKTLDRYANYEGCLWNATGVVVCTGDETQCYGTWVPIGLAIPENEGGGSEGGGSEGGGSEGGGTKPPEYGDTPIPGYTYINPLDGTYPPGTEQNPANPNPSLEESQPLNTFMFQNNRFRNRQGALTVYTGTVTQGTDPVKTYYQYTPVSSKAMYDAYWNGKFRDCAFHSGFNEDLFVCEYQGQSSDLPQPPVNAPSGHHHHHH | ~20 nM | 
M13 filamentous bacteriophage (construct not stated) (other, Whole phage particle; also called M13 phage; wildtype M13) AETVESCLAKPHTENSFTNVWKDDKTLDRYANYEGCLWNATGVVVCTGDETQCYGTWVPIGLAIPENEGGGSEGGGSEGGGSEGGGTKPPEYGDTPIPGYTYINPLDGTYPPGTEQNPANPNPSLEESQPLNTFMFQNNRFRNRQGALTVYTGTVTQGTDPVKTYYQYTPVSSKAMYDAYWNGKFRDCAFHSGFNEDPFVCEYQGQSSDLPQPPVNAGGGSGGGSGGGSEGGGSEGGGSEGGGSEGGGSGGGSGSGDFDYEKMANANKGAMTENADENALQSDAKGKLDSVATDYGAAIDGFIGDVSGLANGNGATGDFAGSNSQMAQVGDGDNSPLMNNFRQYLPSLPQSVECRPFVFSAGKPYEFSIDCDKINLFRGVFAFLLYVATFMYVFSTFANILRNKES |  | ~4 nM
